B1: BRO1 domain-containing protein BROX (Homo sapiens), Q5VW32 (parent)
chain: MTHWFHRNPLKATAPVSFNYYGVVTGPSASKICNDLRSSRARLLELFTDLSCNPEMMKNAADSYFSLLQGFINSLDESTQESKLRYIQNFKWTDTLQGQVPSAQQDAVFELISMGFNVALWYTKYASRLAGKENITEDEAKEVHRSLKIAAGIFKHLKESHLPKLITPAEKGRDLESRLIEAYVIQCQAEAQEVTIARAIELKHAPGLIAALAYETANFYQKADHTLSSLEPAYSAKWRKYLHLKMCFYTAYAYCYHGETLLASDKCGEAIRSLQEAEKLYAKAEALCKEYGETKGPGPTVKPSGHLFFRKLGNLVKNTLEKCQRENGFIYFQKIPTEAPQLELKANYGLVEPIPFEFPPTSVQWTPETLAAFDLTKRPKDDSTKPKPEEEVKPVKEPDIKPQKDTGCYIS
B2: BRO1 domain-containing protein BROX (Homo sapiens), Q5VW32 (parent)
chain: B1 chain
partner: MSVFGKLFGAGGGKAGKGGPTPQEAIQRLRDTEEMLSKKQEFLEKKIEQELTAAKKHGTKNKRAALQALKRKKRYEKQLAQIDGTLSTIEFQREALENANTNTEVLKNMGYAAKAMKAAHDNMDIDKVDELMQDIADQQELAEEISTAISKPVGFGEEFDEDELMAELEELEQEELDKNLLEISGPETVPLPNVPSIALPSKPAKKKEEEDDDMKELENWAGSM
B3: Charged multivesicular body protein 4b (Homo sapiens), Q9H444 (parent)
chain: B2 partner

Variants of: B1
Details: with CHMP5, Q9NZZ3-1
Sequence of CHMP5, Q9NZZ3-1 (Q9NZZ3 whole entry): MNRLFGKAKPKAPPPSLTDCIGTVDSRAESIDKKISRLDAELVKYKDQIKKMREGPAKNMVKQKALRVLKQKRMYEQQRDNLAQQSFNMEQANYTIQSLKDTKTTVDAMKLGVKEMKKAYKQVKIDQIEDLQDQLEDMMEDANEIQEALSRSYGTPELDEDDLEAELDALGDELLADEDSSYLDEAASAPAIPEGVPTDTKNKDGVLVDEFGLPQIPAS

Q: MTHWFHRNPLKATAPVSFNYYGVVTGPSASKICNDLRSSRARLLELFTDLSCNPEMMKNAADSYFSLLQGFINSLDESTQESKLRYIQNFKWTDTLQGQVPSAQQDAVFELISMGFNVALWYTKYASRLAGKENITEDEAKEVHRSLKIAAGIFKHLKESHLPKLITPAEKGRDLESRLIEAYVIQCQAEAQEVTIARAIELKHAPGDIAADAYETANFYQKADHTLSSLEPAYSAKWRKYLHLKMCFYTAYAYCYHGETLLASDKCGEAIRSLQEAEKLYAKAEALCKEYGETKGPGPTVKPSGHLFFRKLGNLVKNTLEKCQRENGFIYFQKIPTEAPQLELKANYGLVEPIPFEFPPTSVQWTPETLAAFDLTKRPKDDSTKPKPEEEVKPVKEPDIKPQKDTGCYIS [L208D;L212D] was tested. Which “effect of a mutation on the interaction” value did it give?
A: disrupting interaction strength

Q: With MTHWFHRNPLKATAPVSFNYYGVVTGPSASKICNDLRSSRARLLELFTDLSCNPEMMKNAADSYFSLLQGFINSLDESTQESKLRYIQNFKWTDTLQGQVPSAQQDAVFELISMGFNVALWYTKYASRLAGKENITEDEAKEVHRSLKIAAGIFKHLKESHLPKLITPAEKGRDLESRLIEAYVIQCQAEAQEVTIARAIELKHAPGLIAALAYETANFYQKADHTLSSLEPAYSAKWRKYLHLKMCFYTAYAYCYHGETLLASDKCGEAIRSLQEAEKLYAKAEALCKEYGETKGPGPTVKPSGHLFFRKLGNLVKNTLEKCQRENGFIYFQKIPTEAPQLELKANAGLVEPIPFEFPPTSVQWTPETLAAFDLTKRPKDDSTKPKPEEEVKPVKEPDIKPQKDTGCYIS [Y348A] as the variant, how does the “effect of a mutation on the interaction” value read?
A: disrupting interaction strength

Q: How did the “effect of a mutation on the interaction” value turn out when MTHWFHRNPLKATAPVSFNYYGVVTGPSASKICNDLRSSRARLLELFTDLSCNPEMMKNAADSYFSLLQGFINSLDESTQESKLRYIQNFKWTDTLQGQVPSAQQDAVFELISMGFNVALWYTKYASRLAGKENITEDEAKEVHRSLKIAAGIFKHLKESHLPKLITPAEKGRDLESRLIEAYVIQCQAEAQEVTIARAIELKAAPGLIAALAYETANFYQKADHTLSSLEPAYSAKWRKYLHLKMCFYTAYAYCYHGETLLASDKCGEAIRSLQEAEKLYAKAEALCKEYGETKGPGPTVKPSGHLFFRKLGNLVKNTLEKCQRENGFIYFQKIPTEAPQLELKANYGLVEPIPFEFPPTSVQWTPETLAAFDLTKRPKDDSTKPKPEEEVKPVKEPDIKPQKDTGCYIS [H204A] was run?
A: disrupting interaction strength

Variants of: B2
Details: with chm4b_human CHMP4B

Q: With MTHWFHRNPLKATAPVSFNYYGVVTGPSASKICNDLRSSRARLLELFTDLSCNPEMMKNAADSYFSLLQGFINSLDESTQESKLRYIQNFKWTDTLQGQVPSAQQDAVFELISMGFNVALWYTKYASRLAGKENITEDEAKEVHRSLKIAAGIFKHLKESHLPKLITPAEKGRDLESRLIEAYVIQCQAEAQEVTIARAIELKHAPGDIAADAYETANFYQKADHTLSSLEPAYSAKWRKYLHLKMCFYTAYAYCYHGETLLASDKCGEAIRSLQEAEKLYAKAEALCKEYGETKGPGPTVKPSGHLFFRKLGNLVKNTLEKCQRENGFIYFQKIPTEAPQLELKANYGLVEPIPFEFPPTSVQWTPETLAAFDLTKRPKDDSTKPKPEEEVKPVKEPDIKPQKDTGCYIS [L208D;L212D] as the variant, how does the “effect of a mutation on the interaction” value read?
A: disrupting interaction strength

Variants of: B3
Details: with brox_human BROX

Q: With MSVFGKLFGAGGGKAGKGGPTPQEAIQRLRDTEEMLSKKQEFLEKKIEQELTAAKKHGTKNKRAALQALKRKKRYEKQLAQIDGTLSTIEFQREALENANTNTEVLKNMGYAAKAMKAAHDNMDIDKVDELMQDIADQQELAEEISTAISKPVGFGEEFDEDELMAELEELEQEELDKNLLEISGPETVPLPNVPSIALPSKPAKKKEEEDDDMKELENAAGSM [W220A] as the variant, how does the “effect of a mutation on the interaction” value read?
A: decreasing interaction strength

Q: Which “effect of a mutation on the interaction” value does the source give for MSVFGKLFGAGGGKAGKGGPTPQEAIQRLRDTEEMLSKKQEFLEKKIEQELTAAKKHGTKNKRAALQALKRKKRYEKQLAQIDGTLSTIEFQREALENANTNTEVLKNMGYAAKAMKAAHDNMDIDKVDELMQDIADQQELAEEISTAISKPVGFGEEFDEDELMAELEELEQEELDKNLLEISGPETVPLPNVPSIALPSKPAKKKEEEDDDMKEAENWAGSM [L217A] here?
A: decreasing interaction strength
